Publication PMC7174398
Values belong to the substance of their own block, whether it stands above or below them.

How the values were obtained:
[1] = target: mHsp60 S464C variant (human); assay: SEC-MALS; mHsp60 (WT or variant) with mHsp10, pre-incubated with 1 mM ATP, 1 mM BeCl2 and 10 mM NaF for 5 min; Superose-6, ~25 C
[2] = target: mHsp60 S464C variant (human); assay: native gel or EMSA; 15 uM mHsp60 variant pre-incubated 5 min without nucleotide or with ADP in 20 mM Tris-HCl pH 7.7, 20 mM MgCl2, 50 mM KCl; 6% native PAGE
[3] = target: mHsp60 S464R variant (human); assay: SEC-MALS; mHsp60 (WT or variant) with mHsp10, pre-incubated with 1 mM ATP, 1 mM BeCl2 and 10 mM NaF for 5 min; Superose-6, ~25 C
[4] = target: mHsp60 S464R/K109E variant (human); assay: as above

- stoichiometry N [1]: 14
- stoichiometry N [2]: 7
Substance: mHsp60 S464C variant (natural protein)

- stoichiometry N [3]: 7
Substance: mHsp60 S464R variant (natural protein)

- stoichiometry N [4]: 7
Substance: mHsp60 S464R/K109E variant (natural protein)
